In article PMC10176472:

Experiments:
GST-CDK4 = GST-CDK4 (UniProt P11802); assay: MST; microscale thermophoresis of MBP-P16p and MBP-cycP16p with GST-CDK4; three replicate measurements
[1] = target: CDK4 from MCF-7 cell lysate (human (endogenous in MCF-7)) (UniProt P11802)
[2] = target: CDK4 from MCF-7 cell lysate (human (endogenous in MCF-7)) (UniProt P11802); remark: listed apart in the source

| Kd (GST-CDK4) [nM] | G0/G1 cell cycle arrest of MCF-7 cells treated for 24 h with different concentrations, flow cytometry; value at 15 μM [1] [%] | G0/G1 cell cycle arrest of MCF-7 cells, time course up to 72 h in serum-supplemented medium [2] [%] | Substance |
| --- | --- | --- | --- |
| 27.7 | – | – | cyclized MBP-P16p protein (MBP-cycP16p) (from UniProt P42771 83-103) (peptide) |
| – | 76.7 | 88 | bicyclic cycRGD-mCh-cycP16p (from UniProt P42771 83-103) |
| 117 | – | – | MBP-P16p (linear counterpart of MBP-cycP16p) (from UniProt P42771 83-103) (peptide) |
